Experimental data from article PMC7542843 (ACS Omega, 2020).

Columns and labels:
[1] = target: EGF (Homo sapiens) (UniProt P01133); details: cited from earlier work
[2] = target: biotinylated HER3 extracellular domain (ECD) (UniProt P21860 20-643, biotin on the C-terminal BirA biotinylation site); assay: ELISA
Chain of biotinylated HER3 extracellular domain (ECD) (P21860 20-643): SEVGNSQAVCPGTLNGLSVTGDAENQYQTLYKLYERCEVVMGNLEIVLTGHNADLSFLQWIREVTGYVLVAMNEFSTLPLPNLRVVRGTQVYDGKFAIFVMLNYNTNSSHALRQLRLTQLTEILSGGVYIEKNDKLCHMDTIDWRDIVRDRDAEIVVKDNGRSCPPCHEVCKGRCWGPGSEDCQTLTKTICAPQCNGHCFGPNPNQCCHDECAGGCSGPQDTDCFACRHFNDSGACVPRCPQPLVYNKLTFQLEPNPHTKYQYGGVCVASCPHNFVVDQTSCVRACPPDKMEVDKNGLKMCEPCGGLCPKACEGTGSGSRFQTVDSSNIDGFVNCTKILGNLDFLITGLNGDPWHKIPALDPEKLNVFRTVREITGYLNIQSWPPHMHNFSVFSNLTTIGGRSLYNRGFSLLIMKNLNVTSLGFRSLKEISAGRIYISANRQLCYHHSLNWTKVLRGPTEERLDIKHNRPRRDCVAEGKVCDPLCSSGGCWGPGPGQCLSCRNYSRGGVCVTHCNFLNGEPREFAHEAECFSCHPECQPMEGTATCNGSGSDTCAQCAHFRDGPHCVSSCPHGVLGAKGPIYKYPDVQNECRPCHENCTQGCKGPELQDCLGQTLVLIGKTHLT

Chain of EGF (Homo sapiens) (P01133 971-1023): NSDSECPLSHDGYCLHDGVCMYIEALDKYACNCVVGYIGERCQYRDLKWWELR

| Kd [2] | Molecule | Kd [1] |
| --- | --- | --- |
|  | EGFR (from UniProt P00533) | 0.177 µM |
| 0.0126 µM | Heregulin-β1 (Hrgβ1) (ligand) TSHLVKCAEKEKTFCVNGGECFMVKDLSNPSRYLCKCPNEFTGDRCQNYVMASFYKHLGIEFMEAEELYQK |  |
